According to US20190382484A1 (Chugai, published 2019):
One block for each binder: values may come before it.

Columns and labels:
[1] = biological target: T1, antibody-half molecule A1 with PF1H / PF1L-k0 (PF1H-DA303v2/PF1L-k0); experiment: SPR (Biacore T200), about 50 RU of half molecule A captured via biotinylated antigen peptide, half molecule B as analyte at 2.5 mg/mL, 25 C (Example 10)
Experimental: (§1) The interaction between the obtained antibody-half molecules was analyzed using Biacore (registered trademark) T200. Biotin CAPture Kit, Series S (GE Healthcare) was used for the measurement, and HBS-EP+10X (GE Healthcare) diluted 1/10th was used as a running buffer. The measurement temperature was 25° C. For the sensor chip, Series S Sensor Chip CAP (GE Healthcare) onto which previously-biotinylated antigen peptides were allowed to interact and thereby immobilized was used. These chips were allowed to capture approximately 50 RU of the antibody-half molecule A of interest and then interact with the antibody-half molecule B of interest diluted with the running buffer at 2.5 mg/mL for 180 seconds at a flow rate of 30 μL/min, and measurement was carried out. The molar binding ratio was calculated based on the following Formula 2. The antibody-half molecule A captured on the chip was washed as described in the instructions attached to the kit, and the chip was regenerated and reused.
(§2) At this time, for the antibody-half molecule to be captured, PF1H (SEQ ID NO: 22), which is the H chain variable region portion of the anti-human IL6 receptor antibody described in WO 2009/041621, was used as the H chain variable region portion, PF1L (SEQ ID NO: 23), which is the L chain variable region portion of the anti-human IL6 receptor antibody described in WO 2009/041621, was used as the L chain variable region portion, and k0 was used as the L chain constant region portion. In addition, for the antibody-half molecules used as analytes, IC17H (SEQ ID NO: 24), which is the anti-KLH antibody described in WO 2015/174439, was used as the H chain variable region, IC17L (SEQ ID NO: 25), which is the anti-KLH antibody described in WO 2015/174439, was used as the L chain variable region, and k0 was used as L chain constant region.

[2] = biological target: T1, antibody-half molecule A1 with PF1H / …; experiment: SPR (Biacore T200), about 50 RU of half molecule A captured via biotinylated antigen peptide, half molecule B as analyte at 2.5 mg/mL, 25 C
Experimental: as §1
as §2, with “the antibody-half molecules to be” for “the antibody-half molecule to be”, “used as the L chain” for “used as L chain”

[3] = biological target: antibody-half molecule A5 with PF1H / PF1L-k0 (PF1H-DA430v2/PF1L-k0); experiment: as above
Experimental: as §1
as §2, with “the antibody-half molecules to be” for “the antibody-half molecule to be”, “used as the L chain” for “used as L chain”

[4] = biological target: antibody-half molecule A6 with PF1H / PF1L-k0 (PF1H-DA303v2.n.n/PF1L-k0); experiment: SPR (Biacore T200), about 50 RU of half molecule A captured via biotinylated antigen peptide, half molecule B as analyte at 2.5 mg/mL, 25 C (Example 10)
Experimental: as §1, §2

[5] = biological target: antibody-half molecule A7 with PF1H / PF1L-k0 (PF1H-DA303v2.n.HATF.B/PF1L-k0); experiment: as above
Experimental: as §1, §2

B1: antibody-half molecule B1 with IC17H / IC17L-k0 (IC17H-DB220v2/IC17L-k0) (antibody, human IgG1, kappa)
heavy: QVQLQQSGPQLVRPGASVKISCKASGYSFTSYWMHWVNQRPGQGLEWIGMIDPSYSETRLNQKFKDKATLTVDKSSSTAYMQLSSPTSEDSAVYYCALYGNYFDYWGQGTTLTVSSASTKGPSVFPLAPSSKSTSGGTAALGCLVKDYFPEPVTVSWNSGALTSGVHTFPAVLQSSGLYSLSSVVTVPSSSLGTQTYICNVNHKPSNTKVDKKVEPKSCDKTHTSPPSPAPELLGGPSVFLFPPKPKDTLMISRTPEVTCVVVDVSHEEPEVKFNWYVDGVEVHNAKTKPREEQYNSTYRVVSVLTVLHQDWLNGKEYKCKVSNDALPMPIEETISKAKGQPREPQVYTLPPSRDELTKNQVSLTCLVKGFYPSDIAVEWESNGQPENNYKTTPPYLDSDGSFFLYSDLTVDKSRWQQGNVFSCSVMHEALHNHYTQESLSLSP
light: DIQMTQSSSSFSVSLGDRVTITCKASEDIYNRLAWYQQKPGNAPRLLISGATSLETGVPSRFSGSGSGKDYTLSITSLQTEDVATYYCQQYWSTPYTFGGGTKLEVKRTVAAPSVFIFPPSDEQLKSGTASVVCLLNNFYPREAKVQWKVDNALQSGNSQESVTEQDSKDSTYSLSSTLTLSKADYEKHKVYACEVTHQGLSSPVTKSFNRGEC
molar binding ratio [1]: 0.54 | molar binding ratio [2]: 0.38

B2: antibody-half molecule B5 with IC17H / IC17L-k0 (IC17H-DB430v2/IC17L-k0) (antibody, human IgG1, kappa)
heavy: QVQLQQSGPQLVRPGASVKISCKASGYSFTSYWMHWVNQRPGQGLEWIGMIDPSYSETRLNQKFKDKATLTVDKSSSTAYMQLSSPTSEDSAVYYCALYGNYFDYWGQGTTLTVSSASTKGPSVFPLAPSSKSTSGGTAALGCLVKDYFPEPVTVSWNSGALTSGVHTFPAVLQSSGLYSLSSVVTVPSSSLGTQTYICNVNHKPSNTKVDKKVEPKSCDKTHTSPPSPAPELLGGPSVFLFPPKPKDTLMISRTPEVTCVVVDVSHEEPEVKFNWYVDGVEVHNAKTKPREEQYNSTYRVVSVLTVLHQDWLNGKEYKCKVSNDALPMPIEETISKAKGQPREPQVYTLPPSRDLLTKNQVSLTCLVKGFYPSDIAVEWESNGQPENNYKTTPPYLDSDGSFFLYSDLTVDKSRWQQGNVFSCSVMHEALHNHYTQESLSLSP
light: DIQMTQSSSSFSVSLGDRVTITCKASEDIYNRLAWYQQKPGNAPRLLISGATSLETGVPSRFSGSGSGKDYTLSITSLQTEDVATYYCQQYWSTPYTFGGGTKLEVKRTVAAPSVFIFPPSDEQLKSGTASVVCLLNNFYPREAKVQWKVDNALQSGNSQESVTEQDSKDSTYSLSSTLTLSKADYEKHKVYACEVTHQGLSSPVTKSFNRGEC
molar binding ratio [3]: 0.27

Now from value to binder:

molar binding ratio [4]: 0.42
B3: antibody-half molecule B6 with IC17H / IC17L-k0 (IC17H-DB220v2.n.n/IC17L-k0) (antibody, human IgG1, kappa)
heavy: QVQLQQSGPQLVRPGASVKISCKASGYSFTSYWMHWVNQRPGQGLEWIGMIDPSYSETRLNQKFKDKATLTVDKSSSTAYMQLSSPTSEDSAVYYCALYGNYFDYWGQGTTLTVSSASTKGPSVFPLAPSSKSTSGGTAALGCLVKDYFPEPVTVSWNSGALTSGVHTFPAVLQSSGLYSLSSVVTVPSSSLGTQTYICNVNHKPSNTKVDKKVEPKSCDKTHTSPPSPAPELLGGPSVFLFPPKPKDTLMISRTPEVTCVVVDVSHEEPEVKFNWYVDGVEVHNAKTKPREEQYNSTYRVVSVLTVLHQDWLNGKEYKCKVSNDALPMPIEETISKAKGQPREPQVYTLPPSRDELTKNQVSLTCLVKGFYPSDIAVEWESNGQPENNYKTTPPYLDSDGSFFLYSDLTVDKSRWQQGNVFSCSVMHEALHNHYTQKSLSLSP
light: DIQMTQSSSSFSVSLGDRVTITCKASEDIYNRLAWYQQKPGNAPRLLISGATSLETGVPSRFSGSGSGKDYTLSITSLQTEDVATYYCQQYWSTPYTFGGGTKLEVKRTVAAPSVFIFPPSDEQLKSGTASVVCLLNNFYPREAKVQWKVDNALQSGNSQESVTEQDSKDSTYSLSSTLTLSKADYEKHKVYACEVTHQGLSSPVTKSFNRGEC

molar binding ratio [5]: 0.32
B4: antibody-half molecule B7 with IC17H / IC17L-k0 (IC17H-DB220v2.n.HATF.A/IC17L-k0) (antibody, human IgG1, kappa)
heavy: QVQLQQSGPQLVRPGASVKISCKASGYSFTSYWMHWVNQRPGQGLEWIGMIDPSYSETRLNQKFKDKATLTVDKSSSTAYMQLSSPTSEDSAVYYCALYGNYFDYWGQGTTLTVSSASTKGPSVFPLAPSSKSTSGGTAALGCLVKDYFPEPVTVSWNSGALTSGVHTFPAVLQSSGLYSLSSVVTVPSSSLGTQTYICNVNHKPSNTKVDKKVEPKSCDKTHTSPPSPAPELLGGPSVFLFPPKPKDTLMISRTPEVTCVVVDVSHEEPEVKFNWYVDGVEVHNAKTKPREEQYNSTYRVVSVLTVLHQDWLNGKEYKCKVSNDALPMPIEETISKAKGQPREPQVYTLPPSRDELTKNQVHLTCLVKGFYPSDIAVEWESNGQPENNYKTTPPYLDSDGSFALYSDLTVDKSRWQQGNVFSCSVMHEALHNHYTQKSLSLSP
light: DIQMTQSSSSFSVSLGDRVTITCKASEDIYNRLAWYQQKPGNAPRLLISGATSLETGVPSRFSGSGSGKDYTLSITSLQTEDVATYYCQQYWSTPYTFGGGTKLEVKRTVAAPSVFIFPPSDEQLKSGTASVVCLLNNFYPREAKVQWKVDNALQSGNSQESVTEQDSKDSTYSLSSTLTLSKADYEKHKVYACEVTHQGLSSPVTKSFNRGEC
